Reference: article PMC12281484, “Targeted O‑GlcNAcylation of CK2α Triggers Its Ubiquitin-Proteasome Degradation and Alters Downstream Phosphorylation” (ACS Chemical Biology, 2025)

Biological target: T1, HTN-CK2α^WT with O-GlcNAcylation at Ser347 induced by OGTAC-1 (cells co-expressing fOGT) (UniProt P68400 1-391, O-GlcNAc at Ser347 (level increased by about 2-fold with 100 nM OGTAC-1 at 8 h))
T1 construct: casein kinase II subunit α (CK2α); Same construct as m1; only a part of the copies is modified (the level is raised over the baseline, not complete); also called HTN-CK2α (OGTAC-1 treated); CK2α with higher O-GlcNAcylation level; source: transfected cells co-expressing fOGT, treated with OGTAC-1 for 8 h, in lysate; not shown: HaloTag, N-terminal, kept
T1 sequence (P68400 whole entry): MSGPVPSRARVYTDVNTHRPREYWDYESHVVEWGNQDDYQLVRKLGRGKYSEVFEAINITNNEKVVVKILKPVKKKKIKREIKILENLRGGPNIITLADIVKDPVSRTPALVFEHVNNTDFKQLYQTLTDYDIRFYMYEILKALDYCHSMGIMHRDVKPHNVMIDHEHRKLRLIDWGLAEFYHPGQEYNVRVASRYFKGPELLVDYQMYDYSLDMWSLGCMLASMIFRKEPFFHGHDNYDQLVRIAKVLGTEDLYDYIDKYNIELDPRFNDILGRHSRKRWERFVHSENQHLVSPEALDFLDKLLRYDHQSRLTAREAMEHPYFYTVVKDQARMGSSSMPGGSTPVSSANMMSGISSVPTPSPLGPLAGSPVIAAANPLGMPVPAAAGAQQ
Assay: co-IP; Flag-CRBN, HTN-CK2α (WT or S347A) and fOGT (WT or K852A) overexpressed in cells; DMSO or 100 nM OGTAC-1 for 8 h; HaloTrap IP; anti-FlagTag and anti-HA-Tag blots
Conditions: partners not purified

fold change of co-IPed CRBN over the DMSO treatment: ~2 fold
B1: Flag-CRBN (cereblon) (natural protein, UniProt Q96SW2 1-442, looked up)
chain: MAGEGDQQDAAHNMGNHLPLLPAESEEEDEMEVEDQDSKEAKKPNIINFDTSLPTSHTYLGADMEEFHGRTLHDDDSCQVIPVLPQVMMILIPGQTLPLQLFHPQEVSMVRNLIQKDRTFAVLAYSNVQEREAQFGTTAEIYAYREEQDFGIEIVKVKAIGRQRFKVLELRTQSDGIQQAKVQILPECVLPSTMSAVQLESLNKCQIFPSKPVSREDQCSYKWWQKYQKRKFHCANLTSWPRWLYSLYDAETLMDRIKKQLREWDENLKDDSLPSNPIDFSYRVAACLPIDDVLRIQLLKIGSAIQRLRCELDIMNKCTSLCCKQCQETEITTKNEIFSLSLCGPMAAYVNPHGYVHETLTVYKACNLNLIGRPSTEHSWFPGYAWTVAQCKICASHIGWKFTATKKDMSPQKFWGLTRSALLPTIPDTEDEISPDKVILCL
notes: cereblon (CRBN), plasmid bought from Addgene; source: co-IP methods: HeLa or HEK293T
